According to patent US20120282279A1 (COVX TECHNOLOGIES IRELAND, published 2012):

Target: FGF21 cell surface receptor composed of FGFR1c and β-Klotho (on the cells of the bioactivity assays) (UniProt P16092 22-822; Q99N32 1-1043, limits assumed)
Experiment: cell-based or functional assay

Sequence of FGF21 cell surface receptor composed of FGFR1c and β-Klotho (on the cells of the bioactivity assays) (P16092 22-822 limits assumed, chain 1 of 2): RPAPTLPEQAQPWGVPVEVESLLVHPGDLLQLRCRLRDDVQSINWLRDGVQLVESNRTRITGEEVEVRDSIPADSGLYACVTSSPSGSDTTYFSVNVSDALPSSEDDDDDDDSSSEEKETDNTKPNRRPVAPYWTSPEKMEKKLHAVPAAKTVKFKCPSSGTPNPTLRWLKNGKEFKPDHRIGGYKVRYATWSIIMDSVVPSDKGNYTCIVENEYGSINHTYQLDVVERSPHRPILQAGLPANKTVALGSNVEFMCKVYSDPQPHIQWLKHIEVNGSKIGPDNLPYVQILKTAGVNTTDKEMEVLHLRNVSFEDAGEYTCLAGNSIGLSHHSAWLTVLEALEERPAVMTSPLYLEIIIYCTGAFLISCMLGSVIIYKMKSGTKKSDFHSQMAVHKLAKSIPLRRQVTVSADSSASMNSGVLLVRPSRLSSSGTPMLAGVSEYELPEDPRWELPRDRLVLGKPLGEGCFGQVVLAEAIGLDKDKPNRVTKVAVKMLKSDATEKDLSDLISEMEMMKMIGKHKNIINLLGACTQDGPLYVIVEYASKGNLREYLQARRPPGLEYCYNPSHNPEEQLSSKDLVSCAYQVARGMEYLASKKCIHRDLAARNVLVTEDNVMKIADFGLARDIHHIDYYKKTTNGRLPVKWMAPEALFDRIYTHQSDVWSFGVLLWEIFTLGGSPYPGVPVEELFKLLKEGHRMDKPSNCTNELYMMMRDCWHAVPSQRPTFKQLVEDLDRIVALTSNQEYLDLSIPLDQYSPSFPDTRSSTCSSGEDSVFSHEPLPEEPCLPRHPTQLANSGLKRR
Sequence of FGF21 cell surface receptor composed of FGFR1c and β-Klotho (on the cells of the bioactivity assays) (Q99N32 whole entry, chain 2 of 2): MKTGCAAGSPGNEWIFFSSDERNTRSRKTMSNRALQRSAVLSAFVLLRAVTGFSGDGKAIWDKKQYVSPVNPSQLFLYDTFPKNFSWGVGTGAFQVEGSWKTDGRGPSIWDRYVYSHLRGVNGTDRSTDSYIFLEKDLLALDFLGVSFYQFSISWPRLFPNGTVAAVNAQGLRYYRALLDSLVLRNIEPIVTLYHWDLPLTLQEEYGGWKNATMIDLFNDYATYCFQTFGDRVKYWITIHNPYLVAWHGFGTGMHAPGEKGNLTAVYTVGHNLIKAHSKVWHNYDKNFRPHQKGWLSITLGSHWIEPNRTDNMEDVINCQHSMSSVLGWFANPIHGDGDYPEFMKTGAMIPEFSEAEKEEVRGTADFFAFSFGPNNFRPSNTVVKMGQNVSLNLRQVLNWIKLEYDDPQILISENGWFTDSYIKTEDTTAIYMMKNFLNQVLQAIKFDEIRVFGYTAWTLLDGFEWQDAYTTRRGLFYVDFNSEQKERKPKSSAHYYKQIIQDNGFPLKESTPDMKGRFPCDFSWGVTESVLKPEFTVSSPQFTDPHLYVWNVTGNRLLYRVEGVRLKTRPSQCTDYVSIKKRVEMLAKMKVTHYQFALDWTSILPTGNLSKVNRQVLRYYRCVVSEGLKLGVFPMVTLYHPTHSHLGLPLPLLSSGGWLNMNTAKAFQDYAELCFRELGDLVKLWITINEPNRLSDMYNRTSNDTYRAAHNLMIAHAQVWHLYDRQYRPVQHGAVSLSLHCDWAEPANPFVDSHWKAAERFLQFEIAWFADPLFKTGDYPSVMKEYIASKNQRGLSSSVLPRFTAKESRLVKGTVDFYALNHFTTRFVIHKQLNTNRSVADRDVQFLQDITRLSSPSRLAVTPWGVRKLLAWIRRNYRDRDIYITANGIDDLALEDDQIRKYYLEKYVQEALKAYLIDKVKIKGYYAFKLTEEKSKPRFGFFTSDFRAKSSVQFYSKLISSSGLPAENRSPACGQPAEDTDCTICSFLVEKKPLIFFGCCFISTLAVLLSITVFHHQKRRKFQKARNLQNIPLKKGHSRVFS

B1: FGF21ΔH (ligand)
chain: PIPDSSPLLQFGGQVRQRYLYTDDAQQTEAHLEIREDGTVGGAADQSPESLLQLKALKPGVIQILGVKTSRFLCQRPDGALYGSLHFDPEACSFRELLLEDGYNVYQSEAHGLPLHLPGNKSPHRDPAPRGPARFLPLPGLPPAPPEPPGILAPQPPDVGSSDPLSMVGPSQGRSPSYAS
- Glut1 Taqman unconjugated Protein EC50: 2.3 nM
